{
  "source": "the Human Domainome abundance scans (Beltran et al. 2025)",
  "note": "± gives the uncertainty stated by the source.",
  "data": [
    {"experiment": "abundance fitness (aPCA) (normalised: wild type 0, dead -1); higher = more abundant; growth selection in yeast, the domain comes from the species named", "conditions": "Homo sapiens", "values": [
      {"substance": "Ventral anterior homeobox 1 F119A, Q5SQQ9", "abundance fitness": "-0.74 ± 0.21"},
      {"substance": "Ventral anterior homeobox 1 F119E, Q5SQQ9", "abundance fitness": "-1.16 ± 0.3"},
      {"substance": "Ventral anterior homeobox 1 F119G, Q5SQQ9", "abundance fitness": "-0.857 ± 0.16"},
      {"substance": "Ventral anterior homeobox 1 F119K, Q5SQQ9", "abundance fitness": "-0.837 ± 0.31"},
      {"substance": "Ventral anterior homeobox 1 F119N, Q5SQQ9", "abundance fitness": "-0.658 ± 0.32"},
      {"substance": "Ventral anterior homeobox 1 F119P, Q5SQQ9", "abundance fitness": "-0.978 ± 0.34"},
      {"substance": "Ventral anterior homeobox 1 F119Q, Q5SQQ9", "abundance fitness": "-0.727 ± 0.39"},
      {"substance": "Ventral anterior homeobox 1 F119R, Q5SQQ9", "abundance fitness": "-0.88 ± 0.17"},
      {"substance": "Ventral anterior homeobox 1 F119S, Q5SQQ9", "abundance fitness": "-0.64 ± 0.18"},
      {"substance": "Ventral anterior homeobox 1 F119T, Q5SQQ9", "abundance fitness": "-0.856 ± 0.29"},
      {"substance": "Ventral anterior homeobox 1 L115D, Q5SQQ9", "abundance fitness": "-0.822 ± 0.4"},
      {"substance": "Ventral anterior homeobox 1 L115E, Q5SQQ9", "abundance fitness": "-0.719 ± 0.29"},
      {"substance": "Ventral anterior homeobox 1 L115G, Q5SQQ9", "abundance fitness": "-0.763 ± 0.16"},
      {"substance": "Ventral anterior homeobox 1 L115K, Q5SQQ9", "abundance fitness": "-0.821 ± 0.41"},
      {"substance": "Ventral anterior homeobox 1 L115N, Q5SQQ9", "abundance fitness": "-0.637 ± 0.35"},
      {"substance": "Ventral anterior homeobox 1 L115R, Q5SQQ9", "abundance fitness": "-0.918 ± 0.16"},
      {"substance": "Ventral anterior homeobox 1 Q111A, Q5SQQ9", "abundance fitness": "-0.226 ± 0.13"},
      {"substance": "Ventral anterior homeobox 1 Q111C, Q5SQQ9", "abundance fitness": "-0.214 ± 0.18"},
      {"substance": "Ventral anterior homeobox 1 Q111D, Q5SQQ9", "abundance fitness": "-0.564 ± 0.18"},
      {"substance": "Ventral anterior homeobox 1 Q111E, Q5SQQ9", "abundance fitness": "-0.393 ± 0.17"},
      {"substance": "Ventral anterior homeobox 1 Q111F, Q5SQQ9", "abundance fitness": "-0.954 ± 0.32"},
      {"substance": "Ventral anterior homeobox 1 Q111G, Q5SQQ9", "abundance fitness": "-0.715 ± 0.11"},
      {"substance": "Ventral anterior homeobox 1 Q111H, Q5SQQ9", "abundance fitness": "-0.355 ± 0.17"},
      {"substance": "Ventral anterior homeobox 1 Q111I, Q5SQQ9", "abundance fitness": "-0.231 ± 0.27"},
      {"substance": "Ventral anterior homeobox 1 Q111K, Q5SQQ9", "abundance fitness": "-0.599 ± 0.28"},
      {"substance": "Ventral anterior homeobox 1 Q111L, Q5SQQ9", "abundance fitness": "-0.807 ± 0.17"},
      {"substance": "Ventral anterior homeobox 1 Q111M, Q5SQQ9", "abundance fitness": "-0.31 ± 0.19"},
      {"substance": "Ventral anterior homeobox 1 Q111N, Q5SQQ9", "abundance fitness": "-0.262 ± 0.24"},
      {"substance": "Ventral anterior homeobox 1 Q111P, Q5SQQ9", "abundance fitness": "-0.716 ± 0.21"},
      {"substance": "Ventral anterior homeobox 1 Q111R, Q5SQQ9", "abundance fitness": "-0.732 ± 0.12"},
      {"substance": "Ventral anterior homeobox 1 Q111S, Q5SQQ9", "abundance fitness": "-0.727 ± 0.14"},
      {"substance": "Ventral anterior homeobox 1 Q111T, Q5SQQ9", "abundance fitness": "-0.068 ± 0.16"},
      {"substance": "Ventral anterior homeobox 1 Q111V, Q5SQQ9", "abundance fitness": "-0.048 ± 0.12"},
      {"substance": "Ventral anterior homeobox 1 Y113D, Q5SQQ9", "abundance fitness": "0.287 ± 0.2"},
      {"substance": "Ventral anterior homeobox 1 Y113E, Q5SQQ9", "abundance fitness": "0.209 ± 0.17"},
      {"substance": "Ventral anterior homeobox 1 Y113G, Q5SQQ9", "abundance fitness": "0.01 ± 0.093"},
      {"substance": "Ventral anterior homeobox 1 Y113H, Q5SQQ9", "abundance fitness": "-0.096 ± 0.25"},
      {"substance": "Ventral anterior homeobox 1 Y113K, Q5SQQ9", "abundance fitness": "-0.004 ± 0.24"},
      {"substance": "Ventral anterior homeobox 1 Y113N, Q5SQQ9", "abundance fitness": "0.168 ± 0.38"},
      {"substance": "Ventral anterior homeobox 1 Y113R, Q5SQQ9", "abundance fitness": "-0.012 ± 0.097"}
    ]}
  ]
}
